Assay results taken from PMC10702442, “Arabidopsis thaliana Phytocystatin 6 Forms Functional Oligomer and Amyloid Fibril States” (Biochemistry, 2023).

Columns and labels:
[1] = target: AtCYT6-CTD_(long), the C-terminal domain containing the interdomain linker at its N-terminus (Arabidopsis thaliana); test: SEC; Superdex 75, 500 uL of protein at up to 2 mg/mL, 20 mM Tris pH 7.5, 50 mM NaCl, nonreducing, room temperature
[2] = target: the molecule itself; test: as above
[3] = target: T1, Papain from Carica papaya (Carica papaya, UniProt P00784 134-345); test: cell-based or functional assay
T1 sequence (looked up): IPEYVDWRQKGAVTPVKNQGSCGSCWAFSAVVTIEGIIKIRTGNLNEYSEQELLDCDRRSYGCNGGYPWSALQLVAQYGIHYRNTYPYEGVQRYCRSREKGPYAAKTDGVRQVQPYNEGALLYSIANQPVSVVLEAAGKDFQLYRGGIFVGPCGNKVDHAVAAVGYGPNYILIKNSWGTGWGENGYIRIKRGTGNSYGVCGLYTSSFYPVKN

[4] = target: the molecule itself; test: SEC; Superdex 200, 500 uL of AtCYT6 at 2 mg/mL, 20 mM Tris pH 7.5, 50 mM NaCl, without or with 2 mM DTT, room temperature
[5] = target: the molecule itself; test: cross-linking; 0.175% (w/v) glutaraldehyde, protein at 0.3 mg/mL in 20 mM citric acid pH 5.5, 100 mM NaCl, room temperature, 1, 5 and 10 min, read by SDS-PAGE

Molecule: AtCYT6-CTD_(long), the C-terminal domain containing the interdomain linker at its N-terminus (domain or fragment)
- stoichiometry N [1]: 2

B1: AtCYT6-NTD, the isolated N-terminal cystatin domain of AtCYT6 (domain or fragment, Arabidopsis thaliana, UniProt Q8H0X6 35-127, looked up)
chain: ALVGGVGDVPANQNSGEVESLARFAVDEHNKKENALLEFARVVKAKEQVVAGTLHHLTLEILEAGQKKLYEAKVWVKPWLNFKELQEFKPASD
notes: N-terminal cystatin domain of cystatin 6 of Arabidopsis thaliana; no cysteine; The limits Ala35–Asp127 are printed for the AlphaFold model named AtCYT6-NTD, on Uniprot ID Q8H0X6; pET-28a vector; also called N-terminal domain; source: E. coli BL21 (DE3), purified (Ni2+ IMAC, gel filtration)
- stoichiometry N [2]: 2
- IC50 of papain inhibition in a fluorescence substrate assay: dimer peak fraction of AtCYT6-NTD against the monomer peak fraction [3]: 10 fold

B2: Arabidopsis thaliana phytocystatin 6 (AtCYT6), full-length AtCYT6 lacking the N-terminal signal peptide (natural protein, UniProt Q8H0X6 35-234, looked up)
chain: ALVGGVGDVPANQNSGEVESLARFAVDEHNKKENALLEFARVVKAKEQVVAGTLHHLTLEILEAGQKKLYEAKVWVKPWLNFKELQEFKPASDAPAITSSDLGCKQGEHESGWREVPGDDPEVKHVAEQAVKTIQQRSNSLFPYELLEVVHAKAEVTGEAAKYNMLLKLKRGEKEEKFKVEVHKNHEGALHLNHAEQHHD
notes: Cystatin 6 (phytocystatin 6) of Arabidopsis thaliana without the N-terminal signal peptide (M1-M34); both cystatin domains and the interdomain linker with Cys138; pET-15b vector; In the functional rows on fibrils this protein stood as washed amyloid fibrils (heated at 80 °C, pH 3.0); also called cystatin 6 from A. thaliana; source: E. coli BL21 (DE3), purified (Ni2+ IMAC, gel filtration)
- binding result [4]: binds

B3: AtCYT6, alkylated before cross-linking (natural protein, Arabidopsis thaliana, UniProt Q8H0X6 35-234, looked up)
chain: ALVGGVGDVPANQNSGEVESLARFAVDEHNKKENALLEFARVVKAKEQVVAGTLHHLTLEILEAGQKKLYEAKVWVKPWLNFKELQEFKPASDAPAITSSDLGCKQGEHESGWREVPGDDPEVKHVAEQAVKTIQQRSNSLFPYELLEVVHAKAEVTGEAAKYNMLLKLKRGEKEEKFKVEVHKNHEGALHLNHAEQHHD
modifications: alkylated to prevent disulfide-mediated dimerization via Cys138
notes: As m1: cystatin 6 of Arabidopsis thaliana without the N-terminal signal peptide (M1-M34); Ala35 to Asp234 according to Uniprot ID Q8H0X6; source: E. coli BL21 (DE3), purified (Ni2+ IMAC, gel filtration), then alkylated
- stoichiometry N [5]: 2
